Laboratory results published in patent publication US20190177426A1 (BRIGHAM AND WOMEN S HOSPITAL, published 2019).

What was measured:
human fibulin-3 [1] = molecular target: T1, human fibulin-3 (human, UniProt Q12805 18-493, limits assumed); experiment: method not stated there (summary of the tests)
T1 construct: Purified human fibulin-3 in Western blot, dot blot and BIACORE (there pretreated with 10 mM DTT to dissociate multimers); The same entry is used for fibulin-3 secreted by transfected CNS1 cells and for native fibulin-3 in human tissue sections; also called Fib3; EFEMP1 gene product
T1 sequence (looked up): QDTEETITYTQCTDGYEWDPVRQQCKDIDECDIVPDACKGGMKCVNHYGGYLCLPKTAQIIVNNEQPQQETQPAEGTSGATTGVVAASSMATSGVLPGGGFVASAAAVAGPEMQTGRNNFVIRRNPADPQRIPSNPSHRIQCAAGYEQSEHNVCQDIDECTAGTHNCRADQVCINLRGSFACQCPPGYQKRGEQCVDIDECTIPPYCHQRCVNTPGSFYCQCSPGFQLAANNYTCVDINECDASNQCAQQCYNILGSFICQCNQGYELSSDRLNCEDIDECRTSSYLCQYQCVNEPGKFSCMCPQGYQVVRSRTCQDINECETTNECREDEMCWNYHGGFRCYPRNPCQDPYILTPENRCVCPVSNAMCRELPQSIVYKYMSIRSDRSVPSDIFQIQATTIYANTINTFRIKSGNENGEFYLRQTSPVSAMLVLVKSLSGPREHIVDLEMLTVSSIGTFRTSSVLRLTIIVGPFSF
Description: (§1) Experiments were performed in duplicate and fit to a 1:1 binding interaction model.

human fibulin-3 [2] = molecular target: T1, human fibulin-3; experiment: SPR (BIACORE), antibody immobilized on the chip, purified human fibulin-3 pretreated with 10 mM DTT, duplicate, 1:1 model
Description: as §1

human fibulin-3 [3] = molecular target: T1, human fibulin-3; experiment: BIACORE, antibody immobilised on the chip, purified human fibulin-3 pretreated with 10 mM DTT as analyte (200-600 nM), 1:1 model; second of two runs (lower panel)
Description: as §1

human fibulin-3 [4] = molecular target: T1, human fibulin-3; experiment: BIACORE, antibody immobilised on the chip, purified human fibulin-3 pretreated with 10 mM DTT as analyte (200-600 nM), 1:1 model; first of two runs (upper panel)
Description: as §1

B1: mAb428.2.3C11.H11.G3 (antibody, IgG1, V domains shown)
VH: QIQLVQSGPELKKPGETVKISCKASGYSFTTYGMSWVKQAPGKGLKWMGWINTYSGVPTYADDFKGRFAFFLETSASTAYLQINNLKNEDTATYFCARWVDYWGQGTTLTVSS
VL: DIKMTQSPSSMYASLGERVTITCKASQDIKSYLSWHQQKPWKSPKTLIYYATSLADGVPSRFSGSGSGQDYSLTISSLESDDTATYYCLQHGKSPYTFGGGTKLEIK
notes: also called mAb428.3C11; mAb428.3C11.H11.G3
- Kd (human fibulin-3 [1]): 5 nM
- Kd (human fibulin-3 [2]): ~4.5 nM
- Kd (human fibulin-3 [3]): 2.03 nM
- Kd (human fibulin-3 [4]): 6.97 nM
